This test concerns NL-Rluc virus. Put plainly: Combinectin potency assay: antiviral EC50, NL-Rluc virus in MT-2 cells, luciferase readout. The test is classed as cell-based, HIV-1. Particulars: Anti-N17 Adnectin, Table 3. The procedure:
MT-2 cells, HEK 293T cells and the proviral DNA clone of […] were obtained from the NIH AIDS Research and Reference Reagent Program. MT-2 cells were propagated in RPMI 1640 medium supplemented with 10% heat-inactivated fetal bovine serum (FBS), 10 mM HEPES buffer pH 7.55, and 2 mM L-glutamine. HEK 293T cells were propagated in DMEM media supplemented with 10% heat-inactivated FBS, 10 mM HEPES buffer pH 7.55 and 2 mM L-glutamine. Recombinant NL-Rluc virus, in which a section of the nef gene from the proviral clone of NL4-3 was replaced with the Renilla luciferase gene, was constructed at Bristol-Myers Squibb. The replication-competent virus was harvested 3 days after transfection of HEK 293T cells with the modified pNL-Rluc proviral clone. Transfections were performed using Lipofectamine Plus (Invitrogen, Carlsbad, Calif.), according to manufacturer's instruction. Virus was titered in MT-2 cells using luciferase enzyme activity as a biomarker. The NL-Rluc virus used to infect MT-2 cells a multiplicity of 0.01 for 1 hour before adding to the peptides in 96-well plates. Peptides were serially diluted three-fold and 11 concentrations were plated in triplicate. After 4-5 days of incubation, cells were processed and quantitated for virus growth by the amount of expressed luciferase. Luciferase was quantitated using the Dual Luciferase kit from Promega (Madison, Wis.), with modifications to the manufacturer's protocol. The diluted Passive Lysis solution was pre-mixed with the re-suspended Luciferase Assay Reagent and then re-suspended in STOP & GLO® Substrate (2:1:1 ratio). A total of […] of the mixture was added to each aspirated well on assay plates and luciferase activity was measured immediately on a Wallac TriLux (Perkin-Elmer, Waltham, Mass.). The 50% effective concentration (EC50) was calculated by comparing the amount of luciferase produced in the presence of inhibitory peptide compared to wells where no peptide was added.

B1: 141 (protein)
chain: MGVSDVPRDLEVVAATPTSLLISWQYKVHPYRYYRITYGETGGNSPVQEFTVPSVLSTATISGLKPGVDYTITVYAVTYGIQSPPISINYRTEIDKPSQHHHHHH
modifications: Adnectin
One may read the EC50 as the concentration giving half of the maximal effect. On to B1, for which the 50% effective concentration (EC50) is 3 nM.

B2: 142 (protein)
chain: MGVSDVPRDLEVVAATPTSLLISWRYRVHPYRYYRITYGETGGNSPVQEFTVPSVLSTATISGLKPGVDYTITVYAVTDGVQSSPISINYRTEIDKPSQHHHHHH
modifications: Adnectin
As for B2, the concentration for a half-maximal effect (EC50) came to 55 nM.

B3: 148 (protein)
chain: MGVSDVPRDLEVVAATPTSLLISWEYNVNPYRYYRITYGETGGNSPVQEFTVPSVLSTATISGLKPGVDYTITVYAVTYGIDSPPISINYRTEIDKPSQHHHHHH
modifications: Adnectin
Consider B3, for which the EC50 was 14 nM.

B4: 155 (protein)
chain: MGVSDVPRDLEVVAATPTSLLISWQYKVHPYRYYRITYGETGGNSPVQEFTVPSVLSTATISGLKPGVDYTITVYAVTHGVHSAPISINYRTEIDKPSQHHHHHH
modifications: Adnectin
Turning to B4, the half-maximal effective concentration (EC50) was 9 nM.

B5: 150 (protein)
chain: MGVSDVPRDLEVVAATPTSLLISWEYNVNPYRYYRITYGETGGNSPVQEFTVPSVLSTATISGLKPGVDYTITVYAVTYGVESSPISINYRTEIDKPSQHHHHHH
modifications: Adnectin
Consider B5, for which the EC50 is 18 nM.

B6: 152 (protein)
chain: MGVSDVPRDLEVVAATPTSLLISWEYNVNPYRYYRITYGETGGNSPVQEFTVPSVLSTATISGLKPGVDYTITVYAVTYGVQSDPISINYRTEIDKPSQHHHHHH
modifications: Adnectin
With B6, the 50% effective concentration (EC50) amounted to 20 nM.

B7: 146 (protein)
chain: MGVSDVPRDLEVVAATPTSLLISWEYKVHPYRYYRITYGETGGNSPVQEFTVPSVLSTATISGLKPGVDYTITVYAVTYGIDSPPISINYRTEIDKPSQHHHHHH
modifications: Adnectin
B7: the concentration for a half-maximal effect (EC50) came out at 11 nM.

B8: 156 (protein)
chain: MGVSDVPRDLEVVAATPTSLLISWEYKVNPWRYYRITYGETGGNSPVQEFTVPSVLSTATISGLKPGVDYTITVYAVTYGIESSPISINYRTEIDKPSQHHHHHH
modifications: Adnectin
With B8, the EC50 came to 43 nM.

B9: 151 (protein)
chain: MGVSDVPRDLEVVAATPTSLLISWEYKVHPYRYYRITYGETGGNSPVQEFTVPSVLSTATISGLKPGVDYTITVYAVTYGIDSSPISINYRTEIDKPSQHHHHHH
modifications: Adnectin
On to B9, for which the EC50 was 11 nM.

B10: 147 (protein)
chain: MGVSDVPRDLEVVAATPTSLLISWEYKVHPYRYYRITYGETGGNSPVQEFTVPSVLSTATISGLKPGVDYTITVYAVTYGVDSDPISINYRTEIDKPSQHHHHHH
modifications: Adnectin
Take B10: the EC50 was found to be 28 nM.

B11: 154 (protein)
chain: MGVSDVPRDLEVVAATPTSLLISWEYNVNPYRYYRITYGETGGNSPVQEFTVPSVLSTATISGLKPGVDYTITVYAVTYGVNSLPISINYRTEIDKPSQHHHHHH
modifications: Adnectin
As for B11, the EC50 amounted to 8 nM.

B12: 143 (protein)
chain: MGVSDVPRDLEVVAATPTSLLISWEYNVNPYRYYRITYGETGGNSPVQEFTVPSVLSTATISGLKPGVDYTITVYAVTYGIESSPISINYRTEIDKPSQHHHHHH
modifications: Adnectin
With B12, the EC50 turned out to be 20 nM.

B13: 144 (protein)
chain: MGVSDVPRDLEVVAATPTSLLISWQYKVHPYRYYRITYGETGGNSPVQEFTVPSVLSTATISGLKPGVDYTITVYAVTYGVESSPISINYRTEIDKPSQHHHHHH
modifications: Adnectin
For B13, the EC50 amounted to 20 nM.

B14: 145 (protein)
chain: MGVSDVPRDLEVVAATPTSLLISWEYKVHPYRYYRITYGETGGNSPVQEFTVPSVLSTATISGLKPGVDYTITVYAVTYGVNSLPISINYRTEIDKPSQHHHHHH
modifications: Adnectin
As to B14, the concentration for a half-maximal effect (EC50) is 11 nM.

B15: 140 (protein)
chain: MGVSDVPRDLEVVAATPTSLLISWDLLEDMSRYYRITYGETGGNSPVQEFTVPTDAYTATISGLKPGVDYTITVYAVTQDSHVIELSYPISINYRTEIDKPSQHHHHHH
modifications: Adnectin
For B15, the EC50 was determined as 950 nM.

B16: 116 (protein)
chain: MASTSGVSDVPRDLEVVAATPTSLLISWDAPAVTVEQYYIAYYVEGEPSSYQYFRVPGSKSTATISGLKPGVLYHIYVNAVTGSGLRPEFSLPIRIKYRTEGSGSHHHHHH
modifications: Adnectin
Turning to B16, the half-maximal effective concentration (EC50) is 50 nM.

B17: 368 (protein)
chain: MGHHHHHHGGSVSDVPRDLEVVAATPTSLLISWEYKVHPYRYYRITYGETGGNSPVQEFTVPSVLSTATISGLKPGVDYTITVYAVTYGTDSAPISINYRTEID
modifications: Adnectin
Regarding B17, the EC50 was found to be 62 nM.

B18: 117 (protein)
chain: MGHHHHHHGGSVSDVPRDLEVVAATPTSLLISWEYKVHPYRYYRITYGETGGNSPVQEFTVPSVLSTATISGLKPGVDYTITVYAVTYGDDSAPISINYRTEID
modifications: Adnectin
Take B18: the EC50 was found to be 42 nM.

B19: 369 (protein)
chain: MGHHHHHHGGSVSDVPRDLEVVAATPTSLLISWEYKVHPYRYYRITYGETGGNSPVQEFTVPSVLSTATISGLKPGVDYTITVYAVTYGDPSAPISINYRTEID
modifications: Adnectin
As for B19, the concentration for a half-maximal effect (EC50) was 155 nM.

B20: 153 (protein)
chain: MGHHHHHHGGSVSDVPRDLEVVAATPTSLLISWEYKVHPYRYYRITYGETGGNSPVQEFTVPSVLSTAQISGLKPGVDYTITVYAVTYGDDSAPISINYRTEID
modifications: Adnectin
In the case of B20, the concentration giving a half-maximal response (EC50) stood at 8 nM.

B21: 370 (protein)
chain: MGHHHHHHGGSVSDVPRDLEVVAATPTSLLISWEYKVHPYRYYRITYGETGGNSPVQEFTVPSVLSTATISGLKPGVDYTITVYAVTYGDDSKPISINYRTEID
modifications: Adnectin
In the case of B21, the EC50 amounted to 335 nM.

B22: 149 (protein)
chain: MGHHHHHHGGSVSDVPRDLEVVAATPTSLLISWEYKVHPYRYYRITYGETGGNSPVQEFTVPSVLSTATISGLKPGVDYTITVYAVTYGKDSAPISINYRTEID
modifications: Adnectin
For B22, the EC50 came to 3 nM.

B23: 371 (protein)
chain: MGHHHHHHGGSVSDVPRDLEVVAATPTSLLISWEYKVHPYRYYRITYGETGGNSPVQEFTVPSVLSTATISGLKPGVDYTITVYAVTYGIDSTPISINYRTEID
modifications: Adnectin
For B23, the EC50 came out at 114 nM.

B24: 139 (protein)
chain: MGVSDVPRDLEVVAATPTSLLISWEDPEAAVRYYRITYGETGGNSPVQEFTVPINDLHSYLSGLKPGVDYTITVYAVTEATVMYVLDEPISINYRTEIDKPSQHHHHHH
modifications: Adnectin
For B24, the 50% effective concentration (EC50) was 130 nM.

Values taken from patent US11155602B2, “Polypeptides targeting HIV fusion” (priority 2015, dated 2021).
